Drawing on paper PMC6921966 (2019), this text covers Ka for one molecule.

For this test, the target named is M2e-VHH-23m (llama). Kind of test: ITC.
M2e-VHH-23m (llama), sequence (VHH, as listed by the source): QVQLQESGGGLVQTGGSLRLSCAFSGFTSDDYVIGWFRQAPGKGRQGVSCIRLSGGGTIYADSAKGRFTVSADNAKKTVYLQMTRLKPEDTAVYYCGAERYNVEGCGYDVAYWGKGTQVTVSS

For the molecule SLLTEVETPIRNEWGCRCNDSSD [human H3N2 M2e peptide], the Ka stood at 1.37e+06 M⁻¹.
